Laboratory results reported in patent publication US20170002061A1 (ALLIGATOR BIOSCIENCE, published 2017).
Substitutions are numbered along the chain they refer to. One block for each binder: values may come before it.

Key:
CD40 on B cells = CD40 on B cells (UniProt P25942 21-277, limits assumed); assay: cell-based or functional assay
[1] = molecular target: T1, Fc-fused CD40 (Ancell, #504-820) (human, UniProt P25942 21-193); assay: ELISA, Fc-fused CD40 coated at 0.05 ug/ml, IgG in serial dilution, anti human Ig-Fc-HRP
T1 construct: not shown: Fc part of a bought fusion protein
T1 sequence (P25942 21-193 limits assumed): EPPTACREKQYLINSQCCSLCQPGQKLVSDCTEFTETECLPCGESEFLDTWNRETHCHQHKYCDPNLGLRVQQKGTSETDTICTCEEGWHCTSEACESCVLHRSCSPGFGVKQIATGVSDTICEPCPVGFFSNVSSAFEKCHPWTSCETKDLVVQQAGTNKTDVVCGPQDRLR
Experimental: For the CD40 binding ELISA, high binding flat bottom LIA plates (Greiner #655074) were coated with Fc-fused CD40 (Ancell, #504-820) at 0.05 μg/ml, and milk powder were used at 3% for blocking and at 1% for dilution. The antibodies to be tested were added in serial dilutions starting at 2000 ng/ml and detection was carried out using HRP conjugated goat anti human Ig-Fc (Jackson ImmunoResearch, #109-035-098) and Super Signal Pico Chemiluminescent (ThermoScientific, #37069) was used as substrate.

[2] = molecular target: T2, LTBRhfc (R&Dsystems, USA) (human, UniProt P36941 28-227, limits assumed); assay: SPR (Biacore 3000), LTBRhfc amine-coupled to CM5, IgG as analyte, 37 C, pH 7.3
T2 construct: Bought protein; also called Fc-fused LTBR (R&D Systems, #629-LR); not shown: Fc part ('hfc') of a bought fusion protein
T2 sequence (P36941 28-227 limits assumed): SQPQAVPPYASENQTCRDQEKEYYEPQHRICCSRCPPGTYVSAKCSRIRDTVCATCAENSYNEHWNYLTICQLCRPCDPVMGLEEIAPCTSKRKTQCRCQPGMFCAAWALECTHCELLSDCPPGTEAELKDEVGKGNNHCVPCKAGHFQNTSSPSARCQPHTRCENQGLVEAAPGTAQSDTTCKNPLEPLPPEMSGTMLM
Experimental: The LTBR binding antibody clones were screened, selected and cloned into full IgG format as described above for CD40. Binding to LTBR for two selected anti-LTBR antibody clones was characterized by surface plasmon resonance (SPR). SPR analysis of LTBR antibodies was performed according to standard protocols. The LTBRhfc (R&Dsystems, USA) was immobilized to the BIAcore sensorchip, CM5, using conventional amine coupling. The anti-LTBR antibodies (serially diluted ⅓ from 1-0.012 nM) were analysed for binding in HBS-P (GE, BR-1003-68) at a flow rate of 30 μl/min at 37° C. and pH 7.3. The association was followed for 3 minutes and the dissociation for 10 minutes. Regeneration was performed twice using 50 mM NaOH for 30 seconds. The kinetic parameters and the affinity constants were calculated using BIAevaluation 4.1 software, and samples were run, using the Biacore 3000 instrument according to manufacturer's protocols.

CD40 on B cells, sequence (P25942 21-277 limits assumed): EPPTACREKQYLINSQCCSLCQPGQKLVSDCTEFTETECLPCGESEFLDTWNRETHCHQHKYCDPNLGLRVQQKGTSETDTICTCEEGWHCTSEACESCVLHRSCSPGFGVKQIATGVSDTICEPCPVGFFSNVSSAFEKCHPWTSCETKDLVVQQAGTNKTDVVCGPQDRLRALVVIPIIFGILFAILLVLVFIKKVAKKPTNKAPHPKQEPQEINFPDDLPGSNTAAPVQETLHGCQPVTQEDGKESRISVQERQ

EC50 B cell (ug/ml); B cell proliferation, ATP content by Cell-titer glow (CD40 on B cells): 0.44 µg/mL
B1: B03 (antibody, V domains shown)
VH: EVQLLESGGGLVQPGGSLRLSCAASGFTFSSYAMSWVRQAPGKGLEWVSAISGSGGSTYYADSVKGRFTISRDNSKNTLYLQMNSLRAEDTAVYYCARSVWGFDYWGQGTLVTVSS
VL: DIQMTQSPSSLSASVGDRVTITCRASQSISSYLNWYQQKPGKAPKLLIYAASSLQSGVPSRFSGSGSGTDFTLTISSLQPEDFATYYCQQGYHVWLYTFGQGTKLEIK

EC50 B cell (ug/ml); B cell proliferation, ATP content by Cell-titer glow (CD40 on B cells): 1 µg/mL | EC50 [1]: 1.4 µg/mL
B2: 1136/1137 (antibody, V domains shown)
VH: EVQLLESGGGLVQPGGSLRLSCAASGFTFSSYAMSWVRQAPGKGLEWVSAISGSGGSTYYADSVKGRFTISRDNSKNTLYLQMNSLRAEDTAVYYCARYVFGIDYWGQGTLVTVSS
VL: B1 VL with G91A, H93Y, V94A, W95G, Y97F
notes: From library AL2

EC50 B cell (ug/ml); B cell proliferation, ATP content by Cell-titer glow (CD40 on B cells): 3.6 µg/mL | EC50 [1]: 0.58 µg/mL
B3: 1146/1147 (antibody, V domains shown)
VH: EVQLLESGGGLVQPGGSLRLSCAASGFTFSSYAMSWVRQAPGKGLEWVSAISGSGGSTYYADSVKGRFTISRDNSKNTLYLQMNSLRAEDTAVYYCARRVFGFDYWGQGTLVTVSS
VL: DIQMTQSPSSLSASVGDRVTITCRASQSISSYLNWYQQKPGKAPKLLIYAASSLQSGVPSRFSGSGSGTDFTLTISSLQPEDFATYYCQQYYYYPFTFGQGTKLEIK
notes: From library AL2

Kd [2]: 0.734 nM | koff [2]: 0.00158 s⁻¹ | kon [2]: 2.23e+06 M⁻¹ s⁻¹
B4: LTBR-3 (antibody, V domains shown)
VH: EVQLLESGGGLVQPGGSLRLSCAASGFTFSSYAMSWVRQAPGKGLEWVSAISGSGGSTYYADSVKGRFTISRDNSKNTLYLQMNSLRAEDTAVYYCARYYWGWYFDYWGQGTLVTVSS
VL: B3 VL with Y91G, Y92W, Y93W, F96L
notes: From library AL1

EC50 B cell (ug/ml); B cell proliferation, ATP content by Cell-titer glow (CD40 on B cells): 2.3 µg/mL | EC50 [1]: 2.2 µg/mL
B5: 1148/1149 (antibody, V domains shown)
VH: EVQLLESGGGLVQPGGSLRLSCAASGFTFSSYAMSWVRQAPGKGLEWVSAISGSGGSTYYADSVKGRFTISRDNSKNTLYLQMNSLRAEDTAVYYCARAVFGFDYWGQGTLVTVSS
VL: B3 VL with Y91A, Y94F, F96H
notes: From library AL2

EC50 B cell (ug/ml); B cell proliferation, ATP content by Cell-titer glow (CD40 on B cells): 0.7 µg/mL | EC50 [1]: 0.034 µg/mL
B6: 1107/1108 (antibody, V domains shown)
VH: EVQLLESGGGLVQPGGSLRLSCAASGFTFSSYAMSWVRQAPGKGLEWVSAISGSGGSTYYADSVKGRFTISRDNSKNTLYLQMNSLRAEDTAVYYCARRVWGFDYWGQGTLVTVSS
VL: B3 VL with Y92G, Y93V
notes: From library AL1
